Assay results from paper PMC10700544.

B1: wild type RNase J, BACTH fusions (pUT18 and pKNT25) [Helicobacter pylori] / wild type RNase J, BACTH fusions (pUT18 and pKNT25) [Helicobacter pylori] (parent)
chain 1: MTDNNQNNENHENSSENSKADEMRAGAFERFTNRKKRFRENAQKNAEYSNHEASSHHKKEHRPNKKPNNHHKQKHAKTRNYAQEELDSNKVEGVTEILHVNERGTLGFHKELKKGVEANNKIQVEHLNPHYKMNLNSKASVKITPLGGLGEIGGNMMVIETPKSAIVIDAGMSFPKEGLFGVDILIPDFSYLHQIKDKIAGIIITHAHEDHIGATPYLFKELQFPLYGTPLSLGLIGSKFDEHGLKKYRSYFKIVEKRCPISVGEFIIEWIHITHSIIDSSALAIQTKAGTIIHTGDFKIDHTPVDNLPTDLYRLAHYGEKGVMLLLSDSTNSHKSGTTPSESTIAPAFDTLFKEAQGRVIMSTFSSNIHRVYQAIQYGIKYNRKIAVIGRSMEKNLDIARELGYIHLPYQSFIEANEVAKYPDNEILIVTTGSQGETMSALYRMATDEHRHISIKPNDLVIISAKAIPGNEASVSAVLNFLIKKEAKVAYQEFDNIHVSGHAAQEEQKLMLRLIKPKFFLPVHGEYNHVARHKQTAISCGVPEKNIYLMEDGDQVEVGPAFIKKVGTIKSGKSYVDNQSNLSIDTSIVQQREEVASAGVFVATIFVNKNKQALLESSQFSSLGLVGFKDEKPLIKEIQGGLEVLLKSSNAEILNNPKKLEDHTRNFIRKALFKKFRKYPAIICHAHSF
chain 2: B1 chain 1

Variants of: B1
Test: BACTH (bacterial two hybrid), beta-galactosidase read-out
Settings: with wild type RNase J, in E. coli, RNJ WT on pUT18, mutant on pKNT25, n ≥ 6, parent: 430, read off a plot

**Q.** For chain 1 E652A, which response is on record?
**A.** 210 Miller units

**Q.** For chain 1 K658A, which response is on record?
**A.** 220 Miller units

**Q.** How did the response turn out when chain 1 E594A was run?
**A.** 440 Miller units

**Q.** For chain 1 E661A, which response is on record?
**A.** 180 Miller units

**Q.** Which response does the source give for chain 1 E593A here?
**A.** 520 Miller units

**Q.** Which response does the source give for chain 1 E616A here?
**A.** 220 Miller units

**Q.** How did the response turn out when chain 1 K647A was run?
**A.** 130 Miller units

**Q.** Which response does the source give for chain 1 K632A here?
**A.** 380 Miller units

**Q.** For chain 1 K609A, which response is on record?
**A.** 500 Miller units
